First the molecules themselves.
B1: pAM115 (B3 domain of Protein L; pos 10 N, pos 45 A, pos 60 N) (designed binder)
chain: PKEEVTIKANLIYADGKTQTAEFKGTFEEATAEAYRYADLLAKEAGKYTVDVADKGYTLNIKFAGKEKTPEE
B2: pAM135 (B3 domain of Protein L; pos 10 Y, pos 45 N, pos 60 Q) (designed binder)
chain: B1 chain with N10Y, A45N, N60Q
B3: pAM129 (B3 domain of Protein L; pos 10 Q, pos 45 A, pos 60 Y) (designed binder)
chain: B1 chain with N10Q, N60Y
B4: pAM117 (B3 domain of Protein L; pos 10 N, pos 45 N, pos 60 Q) (designed binder)
chain: B1 chain with A45N, N60Q
B5: pAM123 (B3 domain of Protein L; pos 10 Q, pos 45 N, pos 60 N) (designed binder)
chain: B1 chain with N10Q, A45N
B6: pAM126 (B3 domain of Protein L; pos 10 Q, pos 45 N, pos 60 Q) (designed binder)
chain: B1 chain with N10Q, A45N, N60Q
B7: pAM124 (B3 domain of Protein L; pos 10 Q, pos 45 A, pos 60 N) (designed binder)
chain: B1 chain with N10Q
B8: pAM120 (B3 domain of Protein L; pos 10 N, pos 45 A, pos 60 Y) (designed binder)
chain: B1 chain with N60Y
B9: pAM119 (B3 domain of Protein L; pos 10 N, pos 45 A, pos 60 Q) (designed binder)
chain: B1 chain with N60Q
B10: pAM116 (B3 domain of Protein L; pos 10 N, pos 45 H, pos 60 N) (designed binder)
chain: B1 chain with A45H
B11: pAM127 (B3 domain of Protein L; pos 10 Q, pos 45 N, pos 60 Y) (designed binder)
chain: B1 chain with N10Q, A45N, N60Y
B12: pAM128 (previously disclosed benchmarking Protein L ligand; B3 domain with pos 10 Q, pos 45 A, pos 60 Q) (designed binder)
chain: B1 chain with N10Q, N60Q
B13: pAM118 (B3 domain of Protein L; pos 10 N, pos 45 N, pos 60 Y) (designed binder)
chain: B1 chain with A45N, N60Y
B14: pAM137 (B3 domain of Protein L; pos 10 Y, pos 45 A, pos 60 Q) (designed binder)
chain: B1 chain with N10Y, N60Q
B15: pAM134 (B3 domain of Protein L; pos 10 Y, pos 45 H, pos 60 N) (designed binder)
chain: B1 chain with N10Y, A45H
B16: pAM133 (B3 domain of Protein L; pos 10 Y, pos 45 A, pos 60 N) (designed binder)
chain: B1 chain with N10Y
B17: pAM130 (B3 domain of Protein L; pos 10 Q, pos 45 H, pos 60 Q) (designed binder)
chain: B1 chain with N10Q, A45H, N60Q
B18: pAM148 (C2 domain of Protein L; pos 10 N, pos 45 N, pos 60 N) (protein)
chain: PKEEVTIKVNLIFADGKTQTAEFKGTFEEATAKAYAYADLLAKENGEYTADLEDGGNTINIKFAGKETPETPEE
B19: pAM161 (C2 domain of Protein L; pos 10 Q, pos 45 A, pos 60 Q) (designed binder)
chain: B18 chain with N10Q, N45A, N60Q
B20: pAM164 (C3 domain of Protein L; pos 10 Q, pos 39 D, pos 45 A, pos 57 Y, pos 60 Q) (designed binder)
chain: B18 chain with N10Q, T18I, N45A, N57Y, N60Q
B21: pAM174 (C2 domain of Protein L; pos 10 Y, pos 45 H, pos 60 Y) (designed binder)
chain: B18 chain with N10Y, N45H, N60Y
B22: pAM151 (C3 domain of Protein L; pos 10 N, pos 39 D, pos 45 N, pos 57 Y, pos 60 N) (designed binder)
chain: B18 chain with T18I, N57Y
B23: pAM175 (C2 domain of Protein L; pos 10 Y, pos 45 H, pos 57 Y, pos 60 Y) (designed binder)
chain: B18 chain with N10Y, N45H, N57Y, N60Y
B24: pAM176 (C3 domain of Protein L; pos 10 Y, pos 45 H, pos 60 Y) (designed binder)
chain: B18 chain with N10Y, T18I, D39N, N45H, N60Y
B25: pAM149 (C2 domain of Protein L; pos 10 N, pos 45 N, pos 57 Y, pos 60 N) (designed binder)
chain: B18 chain with N57Y
B26: pAM177 (C3 domain of Protein L; pos 10 Y, pos 39 D, pos 45 H, pos 57 Y, pos 60 Y) (designed binder)
chain: B18 chain with N10Y, T18I, N45H, N57Y, N60Y
B27: pAM163 (C3 domain of Protein L; pos 10 Q, pos 45 A, pos 60 Q) (designed binder)
chain: B18 chain with N10Q, T18I, D39N, N45A, N60Q
B28: pAM162 (C2 domain of Protein L; pos 10 Q, pos 45 A, pos 57 Y, pos 60 Q) (designed binder)
chain: B18 chain with N10Q, N45A, N57Y, N60Q
B29: pAM150 (C3 domain of Protein L; pos 10 N, pos 45 N, pos 60 N) (protein)
chain: B18 chain with T18I, D39N
B30: pAM144 (B4 domain of Protein L; pos 10 N, pos 45 N, pos 60 N) (protein)
chain: PKEEVTIKANLIYADGKTQTAEFKGTFAEATAEAYRYADLLAKENGKYTADLEDGGYTINIRFAGKKVDEKPEE
B31: pAM157 (B4 domain of Protein L; pos 10 Q, pos 45 A, pos 60 Q) (designed binder)
chain: B30 chain with N10Q, N45A, N60Q
B32: pAM170 (B4 domain of Protein L; pos 10 Y, pos 45 H, pos 60 Y) (designed binder)
chain: B30 chain with N10Y, N45H, N60Y
B33: pAM145 (B5 domain of Protein L with H45N backbone; pos 10 N, pos 45 N, pos 60 N) (designed binder)
chain: KEQVTIKENIYFEDGTVQTATFKGTFAEATAEAYRYADLLSKENGKYTADLEDGGYTINIRFAGKEEPEE
B34: pAM171 (B5 domain of Protein L; pos 10 Y, pos 45 H, pos 60 Y) (designed binder)
chain: B33 chain with N9Y, N44H, N59Y
B35: pAM180 (B5 domain of Protein L; pos 10 N, pos 45 H, pos 60 N) (protein)
chain: B33 chain with N44H
B36: pAM158 (B5 domain of Protein L; pos 10 Q, pos 45 A, pos 60 Q) (designed binder)
chain: B33 chain with N9Q, N44A, N59Q
B37: pAM153 (D1 domain; pos 10 N, pos 45 N, pos 60 N) (protein)
chain: PKEEVTIKANLIFADGKTQTAEFKGTFEEATAEAYRYADLLAKVNGEYTADLEDGGYTINIKFAGKEQPGEN
B38: pAM166 (D1 domain; pos 10 Q, pos 45 A, pos 60 Q) (designed binder)
chain: B37 chain with N10Q, N45A, N60Q
B39: pAM179 (D1 domain; pos 10 Y, pos 45 H, pos 60 Y) (designed binder)
chain: B37 chain with N10Y, N45H, N60Y
B40: pAM152 (C4 domain of Protein L; pos 10 N, pos 45 N, pos 60 N) (protein)
chain: PKEEVTIKVNLIFADGKTQTAEFKGTFEEATAEAYRYADLLAKVNGEYTADLEDGGYTINIKFAGKEQPGENPG
B41: pAM165 (C4 domain of Protein L; pos 10 Q, pos 45 A, pos 60 Q) (designed binder)
chain: B40 chain with N10Q, N45A, N60Q
B42: pAM178 (C4 domain of Protein L; pos 10 Y, pos 45 H, pos 60 Y) (designed binder)
chain: B40 chain with N10Y, N45H, N60Y
B43: pAM143 (B2 domain of Protein L; pos 10 N, pos 45 N, pos 60 N) (protein)
chain: B1 chain with T31A, L40A, A42K, E44D, A45N, K47E
B44: pAM156 (B2 domain of Protein L; pos 10 Q, pos 45 A, pos 60 Q) (designed binder)
chain: B1 chain with N10Q, T31A, L40A, A42K, E44D, K47E, N60Q
B45: pAM169 (B2 domain of Protein L; pos 10 Y, pos 45 H, pos 60 Y) (designed binder)
chain: B1 chain with N10Y, T31A, L40A, A42K, E44D, A45H, K47E, N60Y
B46: pAM141 (B1 domain of Protein L; pos 10 N, pos 45 N, pos 60 N) (protein)
chain: SEEEVTIKANLIFANGSTQTAEFKGTFEKATSEAYAYADTLKKDNGEYTVDVADKGYTLNIKFAGKEKTPEE
B47: pAM154 (B1 domain of Protein L; pos 10 Q, pos 45 A, pos 60 Q) (designed binder)
chain: B46 chain with N10Q, N45A, N60Q
B48: pAM167 (B1 domain of Protein L; pos 10 Y, pos 45 H, pos 60 Y) (designed binder)
chain: B46 chain with N10Y, N45H, N60Y
B49: pAM146 (C1 domain of Protein L; pos 10 N, pos 45 N, pos 60 N) (protein)
chain: PEEEVTIKANLIFADGSTQNAEFKGTFAKAVSDAYAYADALKKDNGEYTVDVADKGLTLNIKFAGKKEKPEE
B50: pAM159 (C1 domain of Protein L; pos 10 Q, pos 45 A, pos 60 Q) (designed binder)
chain: B49 chain with N10Q, N45A, N60Q
B51: pAM172 (C1 domain of Protein L; pos 10 Y, pos 45 H, pos 60 Y) (designed binder)
chain: B49 chain with N10Y, N45H, N60Y

The record followed here is patent US20240391984A1.

Changes are numbered by the printed parent chain. Names and notes keep the numbering of the source.

The target in one experiment is polyclonal IgG (Gammanorm, Octapharma, Sweden). Kind of experiment: SPR (Biacore 8K+), variant amine-coupled to CM5, Gammanorm as analyte, 1:1 kinetic fit.
As a reminder, the Kd is the equilibrium constant for the complex coming apart. In the case of B1, the Kd stood at 12 nM.
The molecule B2 returned a dissociation constant Kd of 17 nM.
In turn, B3 registered a Kd of 14 nM.
Regarding B4, the Kd came to 18 nM.
Molecule B5 had a Kd of 13 nM.
Take B6: the Kd was determined as 16 nM.
B7 returned a Kd of 12 nM.
Regarding B8, the Kd is 19 nM.
In the case of B9, the Kd turned out to be 16 nM.
For B10, the Kd amounted to 14 nM.
B11 displayed a Kd of 15 nM.
Regarding B12, the Kd worked out at 17 nM.
B13 yielded a Kd of 20 nM.
The same measure, in the same setting: under B14 stands 18 nM; under B15, 18 nM.
The same measure, in the same setting: under B16 stands 13 nM.
Consider B17, for which the Kd was 19 nM.

The target is the same in another experiment. Kind of experiment: SPR (Biacore 8K+), variant amine-coupled to CM5, Gammanorm as analyte, steady state fit. Background: SPR reads the build-up and loss of mass on a sensor chip optically.
As to B18, the Kd worked out at 35 nM.
B19 showed a Kd of 110 nM.
Consider B20, for which the dissociation constant (Kd) is 39 nM.
On to B21, for which the Kd came out at 105 nM.
As to B22, the Kd came out at 30 nM.
On to B23, for which the Kd is 57 nM.
Molecule B24 registered a Kd of 137 nM.
The same measure, in the same setting: under B25 stands 45 nM; under B26, 58 nM.
Same read-out and setting: under B27 stands 188 nM; under B28, 39 nM; under B29, 40 nM.
Regarding B30, the Kd is 38 nM.
Turning to B31, the dissociation constant (Kd) was 38 nM.
As for B32, the Kd was determined as 49 nM.
Molecule B33 had a Kd of 11 nM.
The same measure, in the same setting: then B34, with 40 nM; and B35, with 21 nM.
In turn, B36 displayed a Kd of 24 nM.
Consider B37, for which the Kd amounted to 32 nM.
B38 returned a Kd of 41 nM.
For B39, the Kd is 75 nM.
In turn, B40 showed a Kd of 24 nM.
In turn, B41 gave a Kd of 38 nM.
B42 showed a Kd of 45 nM.
The molecule B1 gave a Kd of 51 nM.
On the same count and under the same terms, then B2, with 61 nM; and B43, with 36 nM.
With B3, the Kd worked out at 63 nM.
On to B4, for which the Kd worked out at 60 nM.
B5 returned a Kd of 51 nM.
Regarding B6, the Kd stood at 52 nM.
Regarding B7, the Kd came to 51 nM.
The molecule B8 came in with a Kd of 69 nM.
For the molecule B44, the Kd was 92 nM.
Molecule B9 registered a Kd of 58 nM.
For the molecule B10, the Kd was 51 nM.
Same read-out and setting: under B11 stands 62 nM; under B12, 60 nM; under B13, 68 nM.
Molecule B14 displayed a Kd of 64 nM.
B15 returned a dissociation constant (Kd) of 55 nM.
The molecule B16 came in with a Kd of 46 nM.
The molecule B45 had a Kd of 76 nM.
On the same count and under the same terms, then B17, with 57 nM; and B46, with 48 nM.
Take B47: the Kd is 65 nM.
The same measure, in the same setting: under B48 stands 97 nM.
B49: the Kd came out at 61 nM.
On to B50, for which the Kd stood at 103 nM.
B51 yielded a Kd of 110 nM.
